Experimental data as given in the supplement of paper PMC9876800.

System: peptide library, one residue held at a place counted from the S/T acceptor
Test: relative phosphorylation of the sub-library (ratio to the mean residue at this position); human; higher = residue favoured
Conditions: L fixed; at +3
Summary of the method: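 Purified recombinant kinases (human or orthologue constructs) were incubated in 384-well plates with biotinylated degenerate peptide sub-libraries, each fixing one residue at one position around a central Ser/Thr. Peptides were at 50 μM, with 50 μM ATP spiked with γ-32P-ATP, for 90 min under kinase-specific conditions. Spots on streptavidin membranes were phosphorimaged and quantified by densitometry. Relative sub-library phosphorylation is a ratio to the mean residue at that position.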

Chain of PAK2, construct: aa3-end (Q13177 3-524, looked up): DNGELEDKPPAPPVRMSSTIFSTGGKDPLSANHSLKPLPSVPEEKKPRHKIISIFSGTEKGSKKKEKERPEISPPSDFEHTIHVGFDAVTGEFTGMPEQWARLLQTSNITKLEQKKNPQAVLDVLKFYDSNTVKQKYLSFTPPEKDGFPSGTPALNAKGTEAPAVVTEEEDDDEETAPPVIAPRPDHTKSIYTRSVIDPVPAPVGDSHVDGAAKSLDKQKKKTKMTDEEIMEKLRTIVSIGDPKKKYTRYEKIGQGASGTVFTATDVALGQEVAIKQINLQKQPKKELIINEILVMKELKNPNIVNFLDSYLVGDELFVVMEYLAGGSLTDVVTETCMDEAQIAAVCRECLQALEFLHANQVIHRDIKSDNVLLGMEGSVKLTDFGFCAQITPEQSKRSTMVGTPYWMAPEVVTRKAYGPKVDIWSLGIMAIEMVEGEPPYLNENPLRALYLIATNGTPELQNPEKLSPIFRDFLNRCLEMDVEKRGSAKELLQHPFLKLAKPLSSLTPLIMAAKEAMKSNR
Chain of STK10, construct: aa18-317 (O94804 18-317, looked up): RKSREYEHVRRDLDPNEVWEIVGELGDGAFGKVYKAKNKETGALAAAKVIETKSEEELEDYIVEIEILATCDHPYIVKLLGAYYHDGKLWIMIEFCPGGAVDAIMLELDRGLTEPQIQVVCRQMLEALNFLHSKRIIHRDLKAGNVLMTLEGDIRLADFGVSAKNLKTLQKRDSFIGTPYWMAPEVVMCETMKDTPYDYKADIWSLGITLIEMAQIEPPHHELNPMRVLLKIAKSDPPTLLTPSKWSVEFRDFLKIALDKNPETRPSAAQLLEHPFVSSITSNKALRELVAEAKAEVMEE
Chain of NEK1, construct: aa1-505 (Q96PY6 1-505, looked up): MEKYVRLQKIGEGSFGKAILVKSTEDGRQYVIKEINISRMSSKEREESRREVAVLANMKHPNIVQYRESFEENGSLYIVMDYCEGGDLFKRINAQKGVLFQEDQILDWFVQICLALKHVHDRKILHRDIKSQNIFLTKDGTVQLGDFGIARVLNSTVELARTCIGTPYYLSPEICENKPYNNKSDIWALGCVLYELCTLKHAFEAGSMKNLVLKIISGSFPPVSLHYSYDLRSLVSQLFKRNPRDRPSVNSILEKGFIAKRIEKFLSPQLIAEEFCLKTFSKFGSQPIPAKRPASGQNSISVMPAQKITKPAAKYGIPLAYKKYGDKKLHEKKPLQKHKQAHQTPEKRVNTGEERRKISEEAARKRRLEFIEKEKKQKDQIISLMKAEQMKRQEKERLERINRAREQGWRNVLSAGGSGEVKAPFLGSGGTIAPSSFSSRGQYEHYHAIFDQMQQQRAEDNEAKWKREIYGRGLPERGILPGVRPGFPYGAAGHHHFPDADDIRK
Chain of CSNK2A1, construct: Full length (P68400 whole entry, looked up): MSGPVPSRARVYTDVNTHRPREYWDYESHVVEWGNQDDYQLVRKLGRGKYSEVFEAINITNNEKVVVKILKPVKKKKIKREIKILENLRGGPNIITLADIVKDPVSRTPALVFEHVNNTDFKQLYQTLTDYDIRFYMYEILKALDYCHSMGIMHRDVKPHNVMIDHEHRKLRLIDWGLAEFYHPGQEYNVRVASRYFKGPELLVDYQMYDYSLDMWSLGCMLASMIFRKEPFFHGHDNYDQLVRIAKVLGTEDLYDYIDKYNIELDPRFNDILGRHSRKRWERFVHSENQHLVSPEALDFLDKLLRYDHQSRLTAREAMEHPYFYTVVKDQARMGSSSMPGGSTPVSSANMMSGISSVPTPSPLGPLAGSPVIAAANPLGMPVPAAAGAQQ

Q: “STK10, construct: aa18-317 (from UniProt O94804)” was tested. Which relative phosphorylation did it give?
A: Its relative phosphorylation is 0.809.

Q: For “STK39, construct: Full length (from UniProt Q9UEW8)”, which relative phosphorylation is on record?
A: The relative phosphorylation was 1.01.

Same assay, conditions: L fixed; at +4

Q: With “CSNK2A1, construct: Full length (from UniProt P68400)” as the substance, how does the relative phosphorylation read?
A: The relative phosphorylation was 0.64.

Q: For “NEK1, construct: aa1-505 (from UniProt Q96PY6)”, which relative phosphorylation is on record?
A: Its relative phosphorylation is 1.

Q: How did the relative phosphorylation turn out when “PAK2, construct: aa3-end (from UniProt Q13177)” was run?
A: Its relative phosphorylation is 1.02.

Q: How did the relative phosphorylation turn out when “PRKCG, construct: Full length (from UniProt P05129)” was run?
A: The relative phosphorylation was 0.531.

Q: Which relative phosphorylation does the source give for “STK10, construct: aa18-317 (from UniProt O94804)” here?
A: Its relative phosphorylation is 0.876.

Q: With “STK39, construct: Full length (from UniProt Q9UEW8)” as the substance, how does the relative phosphorylation read?
A: Its relative phosphorylation is 0.921.

Same assay, conditions: L fixed; at -1

Q: “CSNK2A1, construct: Full length (from UniProt P68400)” was tested. Which relative phosphorylation did it give?
A: The relative phosphorylation was 0.926.

Q: How did the relative phosphorylation turn out when “NEK1, construct: aa1-505 (from UniProt Q96PY6)” was run?
A: Its relative phosphorylation is 1.08.

Q: How did the relative phosphorylation turn out when “PAK2, construct: aa3-end (from UniProt Q13177)” was run?
A: The relative phosphorylation was 1.18.

Q: Which relative phosphorylation does the source give for “PRKCG, construct: Full length (from UniProt P05129)” here?
A: The relative phosphorylation was 0.548.

Q: For “STK10, construct: aa18-317 (from UniProt O94804)”, which relative phosphorylation is on record?
A: The relative phosphorylation was 1.18.

Q: “STK39, construct: Full length (from UniProt Q9UEW8)” was tested. Which relative phosphorylation did it give?
A: The relative phosphorylation was 1.32.

Same assay, conditions: L fixed; at -2

Q: Which relative phosphorylation does the source give for “CSNK2A1, construct: Full length (from UniProt P68400)” here?
A: The relative phosphorylation was 0.693.

Q: With “NEK1, construct: aa1-505 (from UniProt Q96PY6)” as the substance, how does the relative phosphorylation read?
A: Its relative phosphorylation is 1.58.

Q: For “PAK2, construct: aa3-end (from UniProt Q13177)”, which relative phosphorylation is on record?
A: Its relative phosphorylation is 0.391.

Q: Which relative phosphorylation does the source give for “PRKCG, construct: Full length (from UniProt P05129)” here?
A: Its relative phosphorylation is 0.409.

Q: Which relative phosphorylation does the source give for “STK10, construct: aa18-317 (from UniProt O94804)” here?
A: The relative phosphorylation was 0.559.

Q: How did the relative phosphorylation turn out when “STK39, construct: Full length (from UniProt Q9UEW8)” was run?
A: The relative phosphorylation was 0.721.

Same assay, conditions: L fixed; at -3

Q: “CSNK2A1, construct: Full length (from UniProt P68400)” was tested. Which relative phosphorylation did it give?
A: The relative phosphorylation was 0.702.

Q: For “NEK1, construct: aa1-505 (from UniProt Q96PY6)”, which relative phosphorylation is on record?
A: Its relative phosphorylation is 1.82.

Q: How did the relative phosphorylation turn out when “PAK2, construct: aa3-end (from UniProt Q13177)” was run?
A: Its relative phosphorylation is 0.561.

Q: For “PRKCG, construct: Full length (from UniProt P05129)”, which relative phosphorylation is on record?
A: The relative phosphorylation was 0.469.

Q: With “STK10, construct: aa18-317 (from UniProt O94804)” as the substance, how does the relative phosphorylation read?
A: The relative phosphorylation was 0.612.

Q: How did the relative phosphorylation turn out when “STK39, construct: Full length (from UniProt Q9UEW8)” was run?
A: The relative phosphorylation was 0.646.

Same assay, conditions: L fixed; at -4

Q: How did the relative phosphorylation turn out when “CSNK2A1, construct: Full length (from UniProt P68400)” was run?
A: Its relative phosphorylation is 0.892.

Q: For “NEK1, construct: aa1-505 (from UniProt Q96PY6)”, which relative phosphorylation is on record?
A: The relative phosphorylation was 1.12.

Q: For “PAK2, construct: aa3-end (from UniProt Q13177)”, which relative phosphorylation is on record?
A: The relative phosphorylation was 0.729.

Q: For “PRKCG, construct: Full length (from UniProt P05129)”, which relative phosphorylation is on record?
A: Its relative phosphorylation is 0.506.

Q: Which relative phosphorylation does the source give for “STK10, construct: aa18-317 (from UniProt O94804)” here?
A: Its relative phosphorylation is 0.767.

Q: “STK39, construct: Full length (from UniProt Q9UEW8)” was tested. Which relative phosphorylation did it give?
A: The relative phosphorylation was 0.76.

Same assay, conditions: L fixed; at -5

Q: Which relative phosphorylation does the source give for “CSNK2A1, construct: Full length (from UniProt P68400)” here?
A: The relative phosphorylation was 0.726.

Q: With “NEK1, construct: aa1-505 (from UniProt Q96PY6)” as the substance, how does the relative phosphorylation read?
A: Its relative phosphorylation is 1.1.

Q: How did the relative phosphorylation turn out when “PAK2, construct: aa3-end (from UniProt Q13177)” was run?
A: The relative phosphorylation was 0.707.

Q: With “PRKCG, construct: Full length (from UniProt P05129)” as the substance, how does the relative phosphorylation read?
A: The relative phosphorylation was 0.589.

Q: For “STK10, construct: aa18-317 (from UniProt O94804)”, which relative phosphorylation is on record?
A: Its relative phosphorylation is 0.654.

Q: Which relative phosphorylation does the source give for “STK39, construct: Full length (from UniProt Q9UEW8)” here?
A: The relative phosphorylation was 0.619.

Same assay, conditions: M fixed; at +1

Q: How did the relative phosphorylation turn out when “CSNK2A1, construct: Full length (from UniProt P68400)” was run?
A: The relative phosphorylation was 0.259.

Q: For “NEK1, construct: aa1-505 (from UniProt Q96PY6)”, which relative phosphorylation is on record?
A: Its relative phosphorylation is 1.67.

Q: With “PAK2, construct: aa3-end (from UniProt Q13177)” as the substance, how does the relative phosphorylation read?
A: The relative phosphorylation was 1.64.

Q: How did the relative phosphorylation turn out when “PRKCG, construct: Full length (from UniProt P05129)” was run?
A: The relative phosphorylation was 1.56.

Q: With “STK10, construct: aa18-317 (from UniProt O94804)” as the substance, how does the relative phosphorylation read?
A: Its relative phosphorylation is 1.83.

Q: With “STK39, construct: Full length (from UniProt Q9UEW8)” as the substance, how does the relative phosphorylation read?
A: The relative phosphorylation was 1.33.

Same assay, conditions: M fixed; at +2

Q: How did the relative phosphorylation turn out when “CSNK2A1, construct: Full length (from UniProt P68400)” was run?
A: The relative phosphorylation was 0.524.

Q: For “NEK1, construct: aa1-505 (from UniProt Q96PY6)”, which relative phosphorylation is on record?
A: The relative phosphorylation was 0.975.

Q: How did the relative phosphorylation turn out when “PAK2, construct: aa3-end (from UniProt Q13177)” was run?
A: The relative phosphorylation was 1.14.

Q: With “PRKCG, construct: Full length (from UniProt P05129)” as the substance, how does the relative phosphorylation read?
A: Its relative phosphorylation is 0.599.

Q: For “STK10, construct: aa18-317 (from UniProt O94804)”, which relative phosphorylation is on record?
A: Its relative phosphorylation is 0.729.

Q: With “STK39, construct: Full length (from UniProt Q9UEW8)” as the substance, how does the relative phosphorylation read?
A: Its relative phosphorylation is 0.873.

Same assay, conditions: M fixed; at +3

Q: For “CSNK2A1, construct: Full length (from UniProt P68400)”, which relative phosphorylation is on record?
A: Its relative phosphorylation is 0.257.

Q: With “NEK1, construct: aa1-505 (from UniProt Q96PY6)” as the substance, how does the relative phosphorylation read?
A: Its relative phosphorylation is 0.907.

Q: How did the relative phosphorylation turn out when “PAK2, construct: aa3-end (from UniProt Q13177)” was run?
A: Its relative phosphorylation is 1.07.

Q: Which relative phosphorylation does the source give for “PRKCG, construct: Full length (from UniProt P05129)” here?
A: Its relative phosphorylation is 0.738.

Q: “STK10, construct: aa18-317 (from UniProt O94804)” was tested. Which relative phosphorylation did it give?
A: The relative phosphorylation was 0.72.

Q: With “STK39, construct: Full length (from UniProt Q9UEW8)” as the substance, how does the relative phosphorylation read?
A: Its relative phosphorylation is 1.05.

Same assay, conditions: M fixed; at +4

Q: With “CSNK2A1, construct: Full length (from UniProt P68400)” as the substance, how does the relative phosphorylation read?
A: The relative phosphorylation was 0.916.

Q: How did the relative phosphorylation turn out when “NEK1, construct: aa1-505 (from UniProt Q96PY6)” was run?
A: The relative phosphorylation was 0.93.

Q: How did the relative phosphorylation turn out when “PAK2, construct: aa3-end (from UniProt Q13177)” was run?
A: The relative phosphorylation was 1.07.

Q: “PRKCG, construct: Full length (from UniProt P05129)” was tested. Which relative phosphorylation did it give?
A: Its relative phosphorylation is 0.586.

Q: Which relative phosphorylation does the source give for “STK10, construct: aa18-317 (from UniProt O94804)” here?
A: Its relative phosphorylation is 0.827.

Q: Which relative phosphorylation does the source give for “STK39, construct: Full length (from UniProt Q9UEW8)” here?
A: The relative phosphorylation was 0.952.

Same assay, conditions: M fixed; at -1

Q: “CSNK2A1, construct: Full length (from UniProt P68400)” was tested. Which relative phosphorylation did it give?
A: The relative phosphorylation was 0.934.

Q: Which relative phosphorylation does the source give for “NEK1, construct: aa1-505 (from UniProt Q96PY6)” here?
A: The relative phosphorylation was 1.41.

Q: How did the relative phosphorylation turn out when “PAK2, construct: aa3-end (from UniProt Q13177)” was run?
A: Its relative phosphorylation is 1.17.
